Source: patent publication US20210301005A1 (Genentech, published 2021)
Like-named read-outs stand apart in the source and are kept apart here.

Key:
[1] = target: T1, human TGFβ3, mature dimeric form (human, UniProt P10600 301-412); assay: cell-based or functional assay
T1 sequence: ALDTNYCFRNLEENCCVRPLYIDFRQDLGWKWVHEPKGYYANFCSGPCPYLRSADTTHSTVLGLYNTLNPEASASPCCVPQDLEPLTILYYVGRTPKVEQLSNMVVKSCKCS

[2] = target: T2, human TGFβ2, mature receptor-binding domain (human, UniProt P09858 303-414 (pig entry), The mature TGFβ2 is a disulfide-linked homodimer of this 112-residue chain. The 4A11 epitope spans both monomers (p-1207).); assay: cell-based or functional assay
T2 sequence: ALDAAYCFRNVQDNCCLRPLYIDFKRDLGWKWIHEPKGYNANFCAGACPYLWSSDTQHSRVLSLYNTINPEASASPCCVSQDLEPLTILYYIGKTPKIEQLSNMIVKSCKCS

[3] = target: T3, human TGFβ1, mature receptor-binding domain (human, UniProt P01137 279-390); assay: cell-based or functional assay
T3 sequence (P01137 279-390 limits assumed): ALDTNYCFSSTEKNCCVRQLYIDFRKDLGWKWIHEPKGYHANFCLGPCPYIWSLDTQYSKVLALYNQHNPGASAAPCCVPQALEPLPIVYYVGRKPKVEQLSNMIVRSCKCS

[4] = target: T1, human TGFβ3, mature dimeric form; assay: BIAcore T200
[5] = target: T1, human TGFβ3, mature dimeric form; assay: BIAcore T200; remark: listed apart in the source
Protocol: (§1) For binding affinity determinations of all humanized 2A10 antibodies, Surface Plasmon Resonance (SPR) measurement with a BIAcore™-T200 instrument was used. Briefly, series S CM5 biosensor chip with protein A was first applied to capture each humanized 2A10 variant to achieve approximately 100 response units (RU) on each flow cell, following by injection of 3-fold serial dilutions of human TGFβ1, TGFβ2 or TGFβ3 (0.02 nM to 5 nM) in HBS-EP buffer (0.01M HEPES pH 7.4, 0.15M NaCl, 3 mM EDTA and 0.05% v/v surfactant P20) at 25° C. with a flow rate of 50 μl/min for kinetics measurement. Association rates (ko.) and dissociation rates (koff) were calculated using a simple one-to-one Langmuir binding model (BIAcore T200 evaluation software version 2.0) to determine the equilibrium dissociation constant (KD), which was calculated as the ratio koff/kₒₙ.

[6] = target: T2, human TGFβ2, mature receptor-binding …; assay: BIAcore T200
Protocol: as §1

[7] = target: T1, human TGFβ3, mature dimeric form; assay: cell-based or functional assay; remark: listed apart in the source
[8] = target: T2, human TGFβ2, mature receptor-binding …; assay: cell-based or functional assay; remark: listed apart in the source
[9] = target: T3, human TGFβ1, mature receptor-binding …; assay: cell-based or functional assay; remark: listed apart in the source
[10] = target: T1, human TGFβ3, mature dimeric form; assay: BIAcore T200; remark: listed apart in the source
Protocol: as §1

[11] = target: T2, human TGFβ2, mature receptor-binding …; assay: BIAcore T200; remark: listed apart in the source
Protocol: as §1

[12] = target: T1, human TGFβ3, mature dimeric form; assay: cell-based or functional assay; remark: listed apart in the source
[13] = target: T2, human TGFβ2, mature receptor-binding …; assay: cell-based or functional assay; remark: listed apart in the source
[14] = target: T3, human TGFβ1, mature receptor-binding …; assay: cell-based or functional assay; remark: listed apart in the source
[15] = target: T3, human TGFβ1, mature receptor-binding …; assay: SPR

Binder	HEKBlue TGFβ blocking IC50 [1]	HEKBlue TGFβ blocking IC50 [2]	HEKBlue TGFβ blocking IC50 [3]	fold drop in TGFβ3 binding against h2A10.v2 [4]	Kd [5]	Kd [6]	HEKBlue TGFβ blocking IC50 [7]	HEKBlue TGFβ blocking IC50 [8]	HEKBlue TGFβ blocking IC50 [9]	Kd [10]	Kd [11]	further results
h2A10.v2.N54Q (antibody, human IgG1, kappa, N297G, V domains shown) VH: EVQLLESGGGLVQPGGSLRLSCAASGFDFNSYGMSWVRQAPGKGLELVADIVSKTYQYTTYYSDSVKDRFTISRDDSKSTVYLQMNSLRAEDTAVYYCTVAPGGSFDYWGQGTLVTVSS VL: DIQLTQSPSSLSASVGDRVTITCRASQSVSISRFNLMHWYQHKPGKQPKLLIYRASNLASGIPSRFSGSGSGTDFTLTISSLQPEDFATYYCQHSRESPWTFGGGTKVEIKR	10 pM	> 200000 pM	> 200000 pM	< 2 fold	2.5 pM	378 pM	–	–	–	–	–	–
h2A10.v4 (antibody, human IgG1, kappa, N297G, V domains shown, human IgG1) VH: EVQLLESGGGLVQPGGSLRLSCAASGFDFNSYGMSWVRQAPGKGLELVSDIVSKTYNYATYYSDSVKDRFTISRDDSKNTLYLQMNSLRAEDTAVYYCTVAPGGSFDYWGQGTLVTVSS VL: DIQLTQSPSSLSASVGDRVTITCRASQSVSISRFNLMHWYQQKPGKAPKLLIYRASNLASGVPSRFSGSGSGTDFTLTISSLQPEDFATYYCQHSRESPWTFGGGTKVEIKR	–	–	–	–	–	–	10 pM	> 200000 pM	> 200000 pM	1.9 pM	300 pM	–
h2A10.v2.T56A (antibody, human IgG1, kappa, N297G, V domains shown) VH: EVQLLESGGGLVQPGGSLRLSCAASGFDFNSYGMSWVRQAPGKGLELVADIVSKTYNYATYYSDSVKDRFTISRDDSKSTVYLQMNSLRAEDTAVYYCTVAPGGSFDYWGQGTLVTVSS VL: DIQLTQSPSSLSASVGDRVTITCRASQSVSISRFNLMHWYQHKPGKQPKLLIYRASNLASGIPSRFSGSGSGTDFTLTISSLQPEDFATYYCQHSRESPWTFGGGTKVEIKR	10 pM	> 200000 pM	> 200000 pM	–	1 pM	247 pM	–	–	–	–	–	–
h2A10.v3 (antibody, human IgG1, kappa, N297G, V domains shown, human IgG1) VH: EVQLLESGGGLVQPGGSLRLSCAASGFDFNSYGMSWVRQAPGKGLELVSDIVSKTYSYTTYYSDSVKDRFTISRDDSKNTLYLQMNSLRAEDTAVYYCTVAPGGSFDYWGQGTLVTVSS VL: DIQLTQSPSSLSASVGDRVTITCRASQSVSISRFNLMHWYQQKPGKAPKLLIYRASNLASGVPSRFSGSGSGTDFTLTISSLQPEDFATYYCQHSRESPWTFGGGTKVEIKR	–	–	–	–	–	–	50 pM	> 200000 pM	> 200000 pM	2.6 pM	482 pM	–
h2A10.v2.N54S (antibody, human IgG1, kappa, N297G, V domains shown) VH: EVQLLESGGGLVQPGGSLRLSCAASGFDFNSYGMSWVRQAPGKGLELVADIVSKTYSYTTYYSDSVKDRFTISRDDSKSTVYLQMNSLRAEDTAVYYCTVAPGGSFDYWGQGTLVTVSS VL: DIQLTQSPSSLSASVGDRVTITCRASQSVSISRFNLMHWYQHKPGKQPKLLIYRASNLASGIPSRFSGSGSGTDFTLTISSLQPEDFATYYCQHSRESPWTFGGGTKVEIKR	10 pM	> 200000 pM	> 200000 pM	< 2 fold	2.4 pM	425 pM	–	–	–	–	–	–
21D1 (antibody, V domains shown) VH: QVQLVQSGAEVKKPGASVKVSCKASGYTFTDYNIHWVRQAPGQGLEWMGYIYPYDGETGYNQKFKSRVTMTTDTSTSTAYMELRSLRSDDTAVYYCARGYRWFAYWGQGTLVTVSS VL: DIQMTQSPSSLSASVGDRVTITCRASSSVPYMHWFQQKPGKAPKSLIYATSNPAYGVPSRFSGSGSGTDFTLTISSLQPEDFATYYCQQWDLNPPAFGQGTKLEIKR	–	–	–	–	–	–	–	–	–	–	–	Blocking IC50 [12]: > 200000 pM; Blocking IC50 [13]: > 200000 pM; Blocking IC50 [14]: 13 pM; Kd [15]: 8 pM
